Reference: patent publication US10098962B2, “Glycosaminoglycan derivative and method for producing same” (Seikagaku Corporation, priority 2013, dated 2018)
Read-outs that look alike come from different tables or passages of the source.

Assays:
[1] = Release test for conjugates obtained from Examples 18 to 21 (Test Example A5); format: physicochemical; settings: 0.1% in 20 mM sodium phosphate buffer pH 7.0, 36°C
Description: The amount of the dissociated diclofenac component which is present in an initial state (storage: Day 0) immediately after the dissolution, and the amount of diclofenac ester which has been forced to dissociate by using a base were subjected to quantitative analysis based on ODS-HPLC. […] From the ratio between the obtained amount of the dissociated diclofenac component at each time point and the amount of dissociated diclofenac component resulting from forced dissociation, the dissociation ratio (%) was calculated. For a pre-treatment of a HPLC sample, OASIS HLB was used, and a fraction eluted by acetonitrile was analyzed. HPLC conditions are as follows. column: […] temperature: 35° C.

[2] = Release test for conjugates obtained from Examples 26 to 28, citrate buffer pH 5.1 (Test Example A7); format: physicochemical
Method: The amount of the dissociated diclofenac component which is present in a solution in an initial state (storage: Day 0) immediately after the dissolution was subjected to quantitative analysis based on ODS-HPLC. […] Meanwhile, the method for pre-treatment of HPLC sample is described below. Methanol (1 mL) was added to the stored solution (1 g). After dilution and addition of acetonitrile to 20 mL, the hyaluronic acid component was allowed to precipitate. The obtained supernatant was used as a HPLC sample. HPLC conditions are as follows. column: […] flow rate: 1 mL/min temperature: 35° C.

[3] = test system: rat model of muscle pain disorder caused by carrageenan
Method: (§2) As an inflammatory agent, 10 mg/mL carrageenan solution was used. As general anesthesia, inhalation of isoflurane (concentration of 3.0%, flow rate of 2.0 L/min) filled in a small animal anesthetizer (TK-4, manufactured by BioMachinery Co., Ltd.) was used.
(§3) A rat (Crj: SD line (SPF), male, 8-week old) was fixed dorsally under general anesthesia, and a broad region around the left gastrocnemius muscle was shaved using a shaver. The area for injection was sprayed with 70% alcohol for sterilization, and by using an injection tube applied with needle for subcutaneous insulin administration (MYJECTOR (registered trade mark), TERUMO CORPORATION), each test solution was injected (volume of 100 μL/site) for intramuscular administration into the left medial gastrocnemius muscle of a rat.
(§4) 10 Days after administering the test substance, each group was administered with 10 mg/mL carrageenan solution. As for the administration method, like the test substance, under inhalation of isoflurane, the region around the gastrocnemius muscle was sprayed with 70% alcohol for sterilization, and by using an injection tube applied with 29 G needle for subcutaneous insulin administration, it was injected (volume of 100 μL/site) for intramuscular administration into the left gastrocnemius muscle of a rat. […]

[4] = rat, in vivo, inhaled or intranasal
Method: As a system for test, BN/CrlCrlj rat (Charles River Laboratories International, Inc., 5-week old) was used.
For administration of each test substance, the test system was fixed dorsally under general anesthesia, and by using a sonde for intratracheal administration (MicroSprayer® Aerosolizer Model IA-1B, manufactured by Penn-Century), intratracheal administration was performed with volume of 100 μL. As general anesthesia, inhalation of isoflurane (Forane (registered trade mark), Dainippon Pharmaceutical Co., Ltd., concentration of 3.0%, flow rate of 2.0 L/min) filled in a small animal anesthetizer (TK-4, manufactured by BioMachinery Co., Ltd.) was used.
At Hour 4, 24, 48, 72 and 168 after administration of a test substance, the pulmonary tissue was collected by using scissors and forceps under pentobarbital anesthesia. Meanwhile, three samples were taken for each evaluation time point. […]
Each parameter of drug kinetics was calculated from a change in average content in pulmonary tissue. If there was an animal showing the measurement value of less than lower limit of quantification (<10 ng/g), the average content in pulmonary tissue was calculated by having the value of 0 (zero) for it. The time t (hr) for calculating AUC0-t was the final time point at which the quantification can be made. […]

[5] = test system: rat model of muscle pain disorder caused by silver nitrate; experiment: Effect of NSAID coupled chondroitin sulfates in rat model of muscle pain induced by silver nitrate (Test Example B3); format: in vivo; settings: i.m. 100 μL/site, 1% DF-CS or 5% other conjugates in PBS, 24, 48, 72 h after administration
Method: As an inflammatory agent, 0.1 mol/L silver nitrate solution was filtered through a 0.22 μm filter and used. […] Accordingly, a rat model of muscle pain disorder caused by silver nitrate was prepared. […] Furthermore, *** and * represent, in the parametric Tukey test, ***p<0.001 and *p<0.05 (vs Control), respectively. Score 0: Normal Score 1: Mild claudication Score 2: Severe claudication Score 3: Walking on three legs […] The length of move of the weight at which a pain-related behavior like avoidance is shown was read to one decimal place. This operation was repeated three times in total, and the median value was taken as the muscle pressure pain threshold. […] Furthermore, *** and * represent, in the parametric Tukey test, ***p<0.001 and *p<0.05 (vs Control), respectively.

[6] = test system: rat model of muscle pain disorder caused by carrageenan; experiment: Effect of diclofenac coupled chondroitin sulfate in rat model of muscle pain disorder caused by carrageenan, 7 days (Test Example B8); format: in vivo
Method: The followings were prepared as a test substance in which PBS is used as a solvent.
as §2
A rat (Crj: SD line (SPF), male, 9-week old) was fixed dorsally under general anesthesia, and a broad region around the left gastrocnemius muscle was shaved using a shaver. The area for injection was sprayed with 70% alcohol for sterilization, and by using an injection tube applied with needle for subcutaneous insulin administration (MYJECTOR (registered trade mark), TERUMO CORPORATION), the test solution was injected (volume of 100 μL/site) for intramuscular administration into the left gastrocnemius muscle of a rat.
7 Days after administering the test substance, each group was administered with 10 mg/mL carrageenan solution. As for the administration method, like the test substance, under inhalation of isoflurane, the region around the gastrocnemius muscle was sprayed with 70% alcohol for sterilization, and by using an injection tube applied with 29 G needle for subcutaneous insulin administration, it was injected (volume of 100 μL/site) for intramuscular administration into the left gastrocnemius muscle of a rat. […]

[7] = Release test for conjugates obtained from Examples 26 and 32 at 60, 40, 25°C (Test Example A9); format: physicochemical
Method: The amount of the dissociated diclofenac component which is present in a solution in an initial state (storage: Day 0) immediately after the dissolution was subjected to quantitative analysis based on ODS-HPLC. Other aliquot was stored at 60° C., 40° C., or 25° C. immediately after the dissolution, the decomposition amount of diclofenac ester was similarly subjected to quantitative analysis after lapse of the each designated time. From the ratio between the obtained amount of the dissociated diclofenac component at each time point and the amount of dissociated diclofenac component resulting from forced dissociation, the dissociation ratio (%) was calculated. For a pre-treatment of a HPLC sample, OASIS HLB was used, and a fraction eluted by acetonitrile was analyzed. HPLC conditions are as follows. column: […] flow rate: 1 mL/min temperature: 35° C.

[8] = test system: rat model of muscle pain disorder caused by silver nitrate; experiment: Effect of diclofenac coupled hyaluronic acids in rat model of muscle pain induced by silver nitrate (Test Example B5); format: in vivo; settings: for duration of analgesic effect: 1% (w/v), intramuscular, observed for 3 days; for pain score vs control group / muscle pressure pain threshold value vs control group: i.m. 100 μL/site, 1% (w/v) in citric acid buffer, 24, 48, 72 h after administration; for pain score vs control group: FIG. 7; for muscle pressure pain threshold value vs control group: FIG. 8
Method: As an inflammatory agent, 0.1 mol/L silver nitrate solution was filtered through a 0.22 μm filter and used. […] Accordingly, a rat model of muscle pain disorder caused by silver nitrate was prepared. […] At Hour 24 after the administration of 0.1 mol/L silver nitrate solution, the rats were divided into 3 groups, and each group was administered with either the test substance or citric acid buffer solution. […] Furthermore, ** and * represent, in the parametric Tukey test, **p<0.01 and *p<0.05 (vs Control), respectively. […] The length of move of the weight at which a pain-related behavior like avoidance is shown was read to one decimal place. This operation was repeated three times in total, and the median value was taken as the muscle pressure pain threshold value. […] Furthermore, *** represents, in the parametric Tukey test, ***p<0.001 (vs Control).

[9] = test system: rat model of muscle pain disorder caused by carrageenan; experiment: Effect of diclofenac coupled hyaluronic acid in rat model of muscle pain disorder caused by carrageenan, 10 days (Test Example B6); format: in vivo
Method: The following were prepared as a test substance in which citric acid buffer is used as a solvent.
as §2, §3, §4

[10] = test system: rat model of muscle pain disorder caused by carrageenan; experiment: Effect of diclofenac coupled sodium hyaluronates in rat model of muscle pain disorder caused by carrageenan, 14 days (Test Example B7); format: in vivo; settings: for muscle pressure pain threshold value vs control group: 1% (w/v) i.m. 14 days before carrageenan, measured 3 h after carrageenan, FIG. 10; for duration of analgesic effect: 1% (w/v), intramuscular administration
Method: The following were prepared as a test substance in which citric acid buffer is used as a solvent. As an inflammatory agent, 10 mg/mL carrageenan solution was used. […] A rat (Crj: SD line (SPF), male, 7-week old) was fixed dorsally under general anesthesia, and a broad region around the left gastrocnemius muscle was shaved using a shaver.

[11] = Release test for conjugates obtained from Examples 22 to 25 (Test Example A6); format: physicochemical; settings: 0.1% in 20 mM sodium phosphate buffer pH 7.0, 36°C
Description: (§1) The amount of the dissociated diclofenac component which is present in an initial state (storage: Day 0) immediately after the dissolution, and the amount of diclofenac ester which has been forced to dissociate by using a base were subjected to quantitative analysis based on ODS-HPLC. […] From the ratio between the obtained amount of the dissociated diclofenac component at each time point and the amount of dissociated diclofenac component resulting from forced dissociation, the dissociation ratio (%) was calculated. For a pre-treatment of a HPLC sample, OASIS HLB was used, and a fraction eluted by acetonitrile was analyzed. HPLC conditions are as follows. column: […] flow rate: 1 mL/min temperature: 35° C.

[12] = Release test for conjugates obtained from Examples 15 to 17 (Test Example A4); format: physicochemical; settings: 0.1% in 20 mM sodium phosphate buffer pH 7.0, 36°C
Description: as §1

[13] = 1% in sodium citrate buffer pH 5.1, 40°C, after 4 weeks
[14] = 1% in sodium citrate buffer pH 5.1, immediately after dissolution
[15] = 1% (w/v), intramuscular administration

diclofenac (1-amino-3,3-dimethylbutan-2-ol)-chondroitin sulfate [Example A5-1]
diclofenac dissociation ratio ([1]; day 0): 0.0%
diclofenac dissociation ratio ([1]; day 1): 0.0%
diclofenac dissociation ratio ([1]; day 2): 0.1%
diclofenac dissociation ratio ([1]; day 4): 0.1%
diclofenac dissociation ratio ([1]; day 8): 0.2%

diclofenac (4-amino-3-hydroxybutyric acid ethyl ester)-chondroitin sulfate [Example A5-4]
diclofenac dissociation ratio ([1]; day 0): 0.1%
diclofenac dissociation ratio ([1]; day 1): 0.4%
diclofenac dissociation ratio ([1]; day 2): 0.9%
diclofenac dissociation ratio ([1]; day 4): 1.7%
diclofenac dissociation ratio ([1]; day 8): 3.3%

diclofenac (2-amino-1-cyclohexylethan-1-ol)-chondroitin sulfate [Example A5-3]
diclofenac dissociation ratio ([1]; day 0): 0.0%
diclofenac dissociation ratio ([1]; day 1): 0.1%
diclofenac dissociation ratio ([1]; day 2): 0.1%
diclofenac dissociation ratio ([1]; day 4): 0.2%
diclofenac dissociation ratio ([1]; day 8): 0.4%

Diclofenac(threonine ethyl ester)-hyaluronic acid
Content of dissociated diclofenac (w/w %) [2, 13]: 0.19 w/w %
Content of dissociated diclofenac (w/w %) [2, 14]: 0.00 w/w %

diclofenac (1-amino-2-propanol)-chondroitin sulfate [Example A4-1]
muscle pressure pain threshold value vs control group ([3]; 1% (w/v) i.m. 10 days before carrageenan, FIG. 12): increased in a significant sense
duration of analgesic effect [3, 15]: 10 days

C[C@H]1C[C@H]2[C@@H]3CCC4=CC(=O)C=C[C@]4(C)[C@@]3(F)[C@@H](O)C[C@]2(C)[C@@]1(O)C(=O)CO [Betamethasone]
AUC0-t [4]: 21371 ng·h/g
AUC0-∞ [4]: 21797 ng·h/g

diclofenac-(2-aminoethanol)-chondroitin sulfate [DF-CS]
pain score vs control group ([5]; FIG. 3): improved in a significant sense
muscle pressure pain threshold value vs control group ([5]; FIG. 4): increased in a significant sense
muscle pressure pain threshold value vs control group ([6]; 1% (w/v) i.m. 7 days before carrageenan, measured 3 h after carrageenan, FIG. 11): increased in a significant sense
duration of analgesic effect [6, 15]: 7 days

diclofenac-(2-aminoethanol)-hyaluronic acid
diclofenac dissociation ratio ([7]; 1% in sodium citrate buffer pH 5.1, 25°C, 0 y (year)): 1.3%
diclofenac dissociation ratio ([7]; 1% in sodium citrate buffer pH 5.1, 25°C, 0.5 y (year)): 6.2%
diclofenac dissociation ratio ([7]; 1% in sodium citrate buffer pH 5.1, 25°C, 1 y (year)): 10.9%
diclofenac dissociation ratio ([7]; 1% in sodium citrate buffer pH 5.1, 40°C, 0 m (month)): 1.3%
diclofenac dissociation ratio ([7]; 1% in sodium citrate buffer pH 5.1, 40°C, 4 m (month)): 13.5%
diclofenac dissociation ratio ([7]; 1% in sodium citrate buffer pH 5.1, 40°C, 6 m (month)): 18.2%
diclofenac dissociation ratio ([7]; 1% in sodium citrate buffer pH 5.1, 40°C, 9 m (month)): 23.7%
diclofenac dissociation ratio ([7]; 1% in sodium citrate buffer pH 5.1, 40°C, 12 m (month)): 28.2%
diclofenac dissociation ratio ([7]; 1% in sodium citrate buffer pH 5.1, 60°C, day 0): 1.3%
diclofenac dissociation ratio ([7]; 1% in sodium citrate buffer pH 5.1, 60°C, day 7): 8.1%
diclofenac dissociation ratio ([7]; 1% in sodium citrate buffer pH 5.1, 60°C, day 14): 12.7%
diclofenac dissociation ratio ([7]; 1% in sodium citrate buffer pH 5.1, 60°C, day 21): 16.4%
duration of analgesic effect [8]: 3 days
pain score vs control group [8]: improved in a significant sense
muscle pressure pain threshold value vs control group [8]: increased in a significant sense
muscle pressure pain threshold value vs control group ([9]; 1% (w/v) i.m. 10 days before carrageenan, measured 3 h after carrageenan, FIG. 9): increased in a significant sense
duration of analgesic effect [9, 15]: 10 days
muscle pressure pain threshold value vs control group [10]: not increased
duration of analgesic effect [10]: less than 14 days

diclofenac (4-amino-3-hydroxybutyric acid ethyl ester)-hyaluronic acid [Example A6-4]
diclofenac dissociation ratio ([11]; day 0): 0.2%
diclofenac dissociation ratio ([11]; day 1): 1.7%
diclofenac dissociation ratio ([11]; day 2): 3.2%
diclofenac dissociation ratio ([11]; day 4): 6.2%
diclofenac dissociation ratio ([11]; day 8): 13.0%

Diclofenac(1-amino-2-propanol)-hyaluronic acid
duration of analgesic effect [8]: 3 days
pain score vs control group [8]: improved in a significant sense
muscle pressure pain threshold value vs control group [8]: increased in a significant sense
muscle pressure pain threshold value vs control group [10]: increased in a significant sense
duration of analgesic effect [10]: 14 days

diclofenac (2-amino-1-cyclohexylethan-1-ol)-hyaluronic acid [Example A6-3]
diclofenac dissociation ratio ([11]; day 0): 0.0%
diclofenac dissociation ratio ([11]; day 1): 0.2%
diclofenac dissociation ratio ([11]; day 2): 0.4%
diclofenac dissociation ratio ([11]; day 4): 0.7%
diclofenac dissociation ratio ([11]; day 8): 1.6%

diclofenac (threonine ethyl ester)-chondroitin sulfate [Example A4-3]
diclofenac dissociation ratio ([12]; day 0): 0.1%
diclofenac dissociation ratio ([12]; day 1): 2.0%
diclofenac dissociation ratio ([12]; day 2): 4.0%
diclofenac dissociation ratio ([12]; day 4): 7.2%
diclofenac dissociation ratio ([12]; day 8): 10.5%

diclofenac (1-amino-3,3-dimethylbutan-2-ol)-hyaluronic acid [Example A6-1]
diclofenac dissociation ratio ([11]; day 0): 0.0%
diclofenac dissociation ratio ([11]; day 1): 0.1%
diclofenac dissociation ratio ([11]; day 2): 0.2%
diclofenac dissociation ratio ([11]; day 4): 0.4%
diclofenac dissociation ratio ([11]; day 8): 0.8%

Diclofenac(serine ethyl ester)-hyaluronic acid
Content of dissociated diclofenac (w/w %) [2, 13]: 0.72 w/w %
Content of dissociated diclofenac (w/w %) [2, 14]: 0.05 w/w %

diclofenac (serine ethyl ester)-chondroitin sulfate [Example A4-2]
diclofenac dissociation ratio ([12]; day 0): 0.0%
diclofenac dissociation ratio ([12]; day 1): 10.9%
diclofenac dissociation ratio ([12]; day 2): 16.9%
diclofenac dissociation ratio ([12]; day 4): 31.9%
diclofenac dissociation ratio ([12]; day 8): 42.2%
